Measurements: patent EP3338799A1 (AlderBio Holdings LLC, dated 2018)

Assays:
Assay in all cases: surface plasmon resonance, 25 °C
cynomolgus monkey IL-6 = target: T1, cynomolgus monkey IL-6 (cynomolgus monkey, UniProt P79341 28-212, limits assumed)
T1 construct: also called IL-6 of cynomolgus monkey
T1 sequence (looked up): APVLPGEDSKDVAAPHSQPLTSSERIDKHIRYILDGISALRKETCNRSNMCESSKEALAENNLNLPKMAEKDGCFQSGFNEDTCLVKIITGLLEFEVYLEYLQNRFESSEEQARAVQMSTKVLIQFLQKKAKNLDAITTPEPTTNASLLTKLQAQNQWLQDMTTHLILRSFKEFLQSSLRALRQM

mouse IL-6 = target: T2, mouse IL-6 (mouse, UniProt P08505 25-211)
T2 construct: also called IL-6 from mouse
T2 sequence (looked up): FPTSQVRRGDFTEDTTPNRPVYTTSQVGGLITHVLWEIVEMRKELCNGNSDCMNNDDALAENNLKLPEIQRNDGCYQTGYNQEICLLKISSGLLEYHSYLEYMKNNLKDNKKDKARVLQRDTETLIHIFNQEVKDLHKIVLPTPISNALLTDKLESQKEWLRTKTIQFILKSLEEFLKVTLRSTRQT

human IL-6 = target: T3, human IL-6 (human, UniProt P05231 30-212)
T3 construct: also called huIL-6; hIL-6

rat IL-6 = target: T4, rat IL-6 (rat, UniProt P20607 25-211)
T4 construct: also called IL-6 from rat
T4 sequence (looked up): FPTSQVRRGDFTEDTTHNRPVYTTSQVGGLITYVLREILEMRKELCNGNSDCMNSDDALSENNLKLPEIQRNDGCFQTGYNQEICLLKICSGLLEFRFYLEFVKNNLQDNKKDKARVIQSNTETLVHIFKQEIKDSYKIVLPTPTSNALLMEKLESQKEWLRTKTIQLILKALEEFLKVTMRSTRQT

Kd (cynomolgus monkey IL-6): 31 pM
Kd (mouse IL-6): 400 pM
Kd (human IL-6): 4 pM
Kd (rat IL-6): 1400 pM
B1: antibody Ab1 (antibody, human IgG1, kappa, N297A, V domains shown)
VH: EVQLVESGGGLVQPGGSLRLSCAASGFSLSNYYVTWVRQAPGKGLEWVGIIYGSDETAYATSAIGRFTISRDNSKNTLYLQMNSLRAEDTAVYYCARDDSSDWDAKFNLWGQGTLVTVSS
VL: AIQMTQSPSSLSASVGDRVTITCQASQSINNELSWYQQKPGKAPKLLIYRASTLASGVPSRFSGSGSGTDFTLTISSLQPDDFATYYCQQGYSLRNIDNAFGGGTKVEIKR
notes: It is a humanized (from rabbit), full length, aglycosylated antibody with human kappa and IgG gamma-1 constant regions, produced in Pichia pastoris; also called Ab1 monoclonal antibody; anti-IL-6 antibody Ab1
